Results as given in article PMC6437178.

Target: engineered Salmo salar Ctr1 crystallization construct sCtr1_(cryst) (Salmo salar | not stated)
Assay: crystal structure; hanging-drop vapor diffusion at 20 °C; 26-28% PEG 400, 50 mM zinc acetate, 50 mM sodium cacodylate pH 5.9; protein in CYMAL-5; Cu^+-free (3.0 Å) and Cu^+-bound (3.2 Å) states; trimer on the crystallographic three-fold axis

- stoichiometry N: 3
Substance: engineered Salmo salar Ctr1 crystallization construct sCtr1_(cryst) (from UniProt A0A1S3KYH5 41-93; A0A1S3KYH5 121-184)
